Laboratory results as given in patent US20140120115A1 (MorphoSys, published 2014).

Legend:
[1] = target: T1, recombinant human D-dopachrome tautomerase (D-DT) (human, UniProt P30046 2-118, biotinylated (Amersham ECL Protein Biotinylation kit; sites not stated)); test: ELISA, antibody at 6.25 nM on recombinant D-DT (FIG. 2)
T1 construct: Used biotinylated on neutravidin plates; also called human D-DT
Description: (§1) Cross-reactivity of antibodies to human MIF and human D-DT was determined by ELISA. Biotinylated recombinant human MIF or D-DT with a concentration of 1 μg/ml were coated on reacti-bind neutravidin coated black 384-well plates (Thermo Scientifc) for 1, 5 h at room temperature. Reacti-bind neutravidin plates had been pretreated with PBS/5% skim milk powder before. After washing with PBST purified IgGs were applied in a concentration of 6.25 nM on a MIF or a D-DT coated plate respectively and incubated for 2 hours at room temperature. After subsequent washing antigen-specific bound IgG was detected via AP-Goat-anti-human IgG Fc-γ fragment specific (Fa Jackson ImmunoResearch) secondary antibody and application of Attophos (Fa ROCHE) according to the manufacturer's manual. Fluorescence intensity was measured via Tecan Reader GeniosPro and fluorescence intensity for the individual clones was compared to control antibody.

[2] = target: T1, recombinant human D-dopachrome …; test: ELISA, IgG at 6.25 nM on biotinylated human D-DT on neutravidin plate
Description: as §1

[3] = target: T2, recombinant human macrophage migration inhibitory factor (MIF) (human, UniProt P14174 2-115, biotinylated (Amersham ECL Protein Biotinylation kit; sites not stated)); test: ELISA, antibody at 6.25 nM on recombinant MIF (FIG. 2)
T2 construct: also called human MIF; biotinylated MIF
T2 sequence (P14174 2-115 limits assumed): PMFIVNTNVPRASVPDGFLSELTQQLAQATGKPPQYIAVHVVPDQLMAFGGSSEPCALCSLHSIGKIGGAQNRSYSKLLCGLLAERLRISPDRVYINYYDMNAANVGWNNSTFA
Description: as §1

[4] = target: T2, recombinant human macrophage migration …; test: ELISA; lower end of the group's range, tied to C on MIF by Table 2
Description: (§2) For further characterization, the EC₅₀ concentration for each of the cross-reactive antibodies to MIF and to D-DT was determined based on the ELISA setting according to Example 1. Concentrations of each of the individual antibodies were titrated and 8 distinct concentrations from 0 nM to 166 nM were applied side by side on a plate coated with MIF and a plate coated with D-DT. Biotinylated recombinant human MIF or D-DT with a concentration of 1 μg/ml were coated on reacti-bind neutravidin coated black 384-well plates (Thermo Scientifc) for 1, 5 h at room temperature. Reacti-bind neutravidin plates had been pretreated with PBS/5% skim milk powder before. After washing with PBST purified IgGs were added to the MIF or D-DT coated plate respectively and incubated for 2 hours at room temperature. After subsequent washing antigen-specific bound IgG was detected via AP-Goat-anti-human IgG Fc-γ fragment specific (Fa Jackson ImmunoResearch) secondary antibody and application of Attophos (Fa ROCHE) according to the manufacturer's manual. Fluorescence intensity was measured via Tecan Reader GeniosPro and fluorescence intensity for the individual clones was plotted in a typical antibody titration curve. EC₅₀ values were determined with the program GraphPad Prism using non-linear regression analysis.

[5] = target: T1, recombinant human D-dopachrome …; test: ELISA, IgG titrated (0-166 nM) on biotinylated human D-DT on neutravidin plate
Description: as §2

[6] = target: T2, recombinant human macrophage migration …; test: ELISA, IgG at 6.25 nM on biotinylated human MIF on neutravidin plate
Description: as §1

[7] = target: T2, recombinant human macrophage migration …; test: ELISA, IgG titrated (0-166 nM) on biotinylated human MIF on neutravidin plate
Description: as §2

[8] = target: T1, recombinant human D-dopachrome …; test: ELISA; upper end of the group's range, tied to A on D-DT by Table 2
Description: as §2

T1 sequence (P30046 2-118 limits assumed): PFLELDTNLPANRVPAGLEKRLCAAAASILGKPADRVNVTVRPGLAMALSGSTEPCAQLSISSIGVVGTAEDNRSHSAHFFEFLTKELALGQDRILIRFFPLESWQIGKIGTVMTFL

fold fluorescence intensity above background [1]	fold signal intensity compared to the negative control [2]	fold fluorescence intensity above background [3]	EC50 [4]	EC50 [5]	fold signal intensity compared to the negative control [6]	EC50 [7]	EC50 [8]	Binder
> 5 fold	≥ 5 fold	> 5 fold	0.3 nM	2.29 nM	≥ 5 fold	0.36 nM	–	MOR014138 (antibody, V domains shown, also called antibody C) VH: QVQLVQSGAEVKKPGSSVKVSCKASGGTFTSYAIHWVRQAPGQGLEWMGRIIPHFGTAYYAQKFQGRVTITADESTSTAYMELSSLRSEDTAVYYCARVQVYMSVLGWGYENYMDVWGQGTLVTVSS VL: DIVLTQSPATLSLSPGERATLSCRASQSVSAFQLGWYQQKPGQAPRLLIYGASTRATGIPARFSGSGSGTDFTLTISSLEPEDFAVYYCQQYIQYPYTFGQGTKVEIKR
> 5 fold	≥ 5 fold	> 5 fold	–	21.2 nM	≥ 5 fold	1.14 nM	22 nM	MOR014093 (antibody, V domains shown, also called antibody A) VH: QVQLLESGGGLVQPGGSLRLSCAASGFTFSDYYMDWVRQAPGKGLEWVSAISSSGSTTYYADSVKGRFTISRDNSKNTLYLQMNSLRAEDTAVYYCARGNLFGSTYVMGFDHWGQGTLVTVSS VL: DIELTQPPSVSVSPGQTASITCSGDSIGSTHVSWYQQKPGQAPVLVIYRKSNRPSGIPERFSGSNSGNTATLTISGTQAEDEADYYCSSWDSESVVFGGGTKLTVLG
> 5 fold	≥ 5 fold	> 5 fold	–	8.47 nM	≥ 5 fold	0.486 nM	–	MOR014116 (antibody, V domains shown, also called antibody B) VH: QVQLVQSGAEVKKPGSSVKVSCKASGGTFSDYAISWVRQAPGQGLEWMGLIIPLFGTANYAQKFQGRVTITADESTSTAYMELSSLRSEDTAVYYCARSPAYQLVTPYYYVSDWFDVWGQGTLVTVSS VL: DIVLTQPPSVSGAPGQRVTISCSGSSSNIGSNYVSWYQQLPGTAPKLLIYDNSERPSGVPDRFSGSKSGTSASLAITGLQAEDEADYYCQSWDASPWSYVFGGGTKLTVLG
